Measured values reported in publication PMC8203622, “Tight docking of membranes before fusion represents a metastable state with unique properties” (Nature Communications, 2021).

Target: T1, syntaxin-1A (183–288) (Rattus norvegicus, UniProt P32851 183-288)
T1 construct: syntaxin-1A, Rattus norvegicus, residues 183-288
Assay: assembly of a complex by mixing, isolated by ion exchange chromatography (MonoQ); purified proteins mixed overnight at 4 °C in a buffer containing CHAPS, then MonoQ
Settings: both partners purified

T1 sequence (P32851 183-288): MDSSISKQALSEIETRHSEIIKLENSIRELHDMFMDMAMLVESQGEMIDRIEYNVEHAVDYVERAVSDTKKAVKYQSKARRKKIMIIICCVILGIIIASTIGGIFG

B1: synaptobrevin-2 fragment (49–96) (domain or fragment, Rattus norvegicus, UniProt P63045 49-96, looked up)
chain: NVDKVLERDQKLSELDDRADALQAGASQFETSAAKLKRKYWWKNLKMM
notes: synaptobrevin-2, Rattus norvegicus, residues 49-96; also called synaptobrevin fragment 49–96
B1: binds.
